The text below walks through data of patent US10294504B2, “Mutant endoglycoceramidases with enhanced synthetic activity” (La Jolla Pharmaceutical Company, priority 2004, dated 2019).

This data set can be described thus: Hydrolysis kinetics of wild-type Rhodococcus EGC using 2,4-dinitrophenyl lactoside as the substrate. Type of data set: biochemical. How it is done: FIG. 18 illustrates a Michaelis-Menten curve for wild-type Rhodococcus EGC using 2,4-dinitrophenyl lactoside as the substrate.
FIGS. 19A-19C illustrate variation of kcat, Km, and kcat/Km with increasing detergent concentration for wild-type Rhodococcus EGC.
FIG. 20 illustrates pH rate profile for wild-type Rhodococcus EGC.
Using 2,4-dinitrophenyl lactoside as a substrate, the Rhodococcus M-777 EGC enzyme has a Km of approximately 2 mM, and a kcat of 90 min-1 (FIG. 18). The dependence of the activity on detergent concentration was also investigated. […] The dependence of kcat/Km on detergent concentration leveled off at concentrations greater than 0.5%; increasing the detergent concentration caused a steady increase in both kcat and Km up to a concentration of 1% (FIGS. 19A-C). The pH dependence of the hydrolysis activity was also investigated. As expected, the maximal kcat/Km is observed around pH 5 (FIG. 20).

Setting [1] is: substrate 2,4-dinitrophenyl lactoside.

B1: Rhodococcus M-777 EGC: wild-type endoglycoceramidase from Rhodococcus sp. M-777, GenBank AAB67050, SEQ ID NO:3 (protein, listed as Rhodococcus sp.)
chain: MRRTRLVSLIVTGSLVFGGGVAAAQSSLAASGSGSGSGTALTPSYLKDDDGRSLILRGFNTASSAKSAPDGMPQFTEADLAREYADMGTNFVRFLISWRSVEPAPGVYDQQYLDRVEDRVGWYAERGYKVMLDMHQDVYSGAITPEGNSGNGAGAIGNGAPAWATYMDGLPVEPQPRWELYYIQPGVMRAFDNFWNTTGKHPELVEHYAKAWRAVADRFADNDAVVAYDLMNEPFGGSLQGPAFEAGPLAAMYQRTTDAIRQVDQDTWVCVAPQAIGVNQGLPSGLTKIDDPRAGQQRIAYCPHLYPLPLDIGDGHEGLARTLTDVTIDAWRANTAHTARVLGDVPIILGEFGLDTTLPGARDYIERVYGTAREMGAGVSYWSSDPGPWGPYLPDGTQTLLVDTLNKPYPRAVAGTPTEWSSTSDRLQLTIEPDAAITAPTEIYLPEAGFPGDVHVEGADVVGWDRQSRLLTVRTPADSGNVTVTVTPAA
As to B1, the rate of hydrolysis entry (in the absence of detergent) is given as “very low”. In addition, the “pH of maximal kcat/Km” value (pH dependence of the hydrolysis activity) is around 5 pH. Moreover, under setting [1], the Km is around 2000 µM and the kcat was determined as 1.5 s⁻¹.

A word on the Km: it is the substrate concentration at which the rate is half of its maximum. Usually kcat stands for the maximal rate divided by the concentration of active sites.
